Sequences and labels used below:
B1: WQ20 (peptide)
peptide: WNLPASFHNHHIRPHEHEWIQ
notes: also called WQ-21; peptide WQ20
B2: QP20 (peptide)
peptide: QTRTVPMPKIHHPPWQNVVP
notes: Found by phage display; also called peptide QP20
B3: HD20 (peptide)
peptide: HHHQVYQVRSHWTGMHSGHD
notes: Found by phage display; also called peptide HD20
B4: SQ20 (peptide)
peptide: SSYHHFKMPELHFGKNTFHQ
notes: Found by phage display; also called peptide SQ20

T1 sequence (Q15116 25-167 limits assumed): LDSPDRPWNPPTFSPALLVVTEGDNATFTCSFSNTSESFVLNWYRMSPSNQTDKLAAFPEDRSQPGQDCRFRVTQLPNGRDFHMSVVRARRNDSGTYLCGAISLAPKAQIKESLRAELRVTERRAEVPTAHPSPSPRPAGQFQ

The first assay concerns the target T1, soluble recombinant human PD-1 receptor (human, UniProt Q15116 25-167, limits assumed).
T1 construct: also called human PD-1 receptors
The assay can be described thus: clonal phage ELISA, peptide on phage, wells coated with PD-1. On the technique in general: ELISA stands for enzyme-linked immunosorbent assay.
B1: the coated signal was 0.275.
Same read-out and setting: with B2 the figure was 0.851; with B3, 0.281.
Same read-out and setting: with B4 the figure was 0.284.

The target of another assay is human PD-1 on Jurkat cells (human, UniProt Q15116 25-288). The assay can be described thus: cell-based or functional assay.
human PD-1 on Jurkat cells, sequence (Q15116 25-288): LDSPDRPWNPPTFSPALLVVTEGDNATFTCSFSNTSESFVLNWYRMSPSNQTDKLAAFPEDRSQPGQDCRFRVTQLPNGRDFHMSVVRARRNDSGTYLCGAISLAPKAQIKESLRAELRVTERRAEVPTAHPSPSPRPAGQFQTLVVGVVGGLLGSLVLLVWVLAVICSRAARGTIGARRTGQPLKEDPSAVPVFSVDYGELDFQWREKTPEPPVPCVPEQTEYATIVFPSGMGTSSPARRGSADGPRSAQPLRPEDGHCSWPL
In the case of B1, the “peak-fold inhibition (luciferase reporter)” value was around 1.5 fold.
On the same count and under the same terms, the same measure for B2: around 1.5 fold; for B3: around 1.5 fold.
On the same count and under the same terms, with B4 the figure was around 1.5 fold.

For the origin of these results see patent EP3758732B1 (Leidos, Inc., dated 2024).
